Results from patent publication US12303551B2, “Cellular immunotherapy compositions and uses thereof” (CERO THERPEUTICS HOLDINGS, INC., priority 2018, dated 2025).

B1: CER23: Chimeric engulfment receptor: Tim4 binding, Tim4 transmembrane, TLR9 signaling; SEQ ID NO: 116 (protein)
chain: MSKGLLLLWLVTELWWLYLTPAASEDTIIGFLGQPVTLPCHYLSWSQSRNSMCWGKGSCPNSKCNAELLRTDGTRIISRKSTKYTLLGKVQFGEVSLTISNTNRGDSGVYCCRIEVPGWFNDVKKNVRLELRRATTTKKPTTTTRPTTTPYVTTTTPELLPTTVMTTSVLPTTTPPQTLATTAFSTAVTTCPSTTPGSFSQETTKGSAFTTESETLPASNHSQRSMMTISTDIAVLRPTGSNPGILPSTSQLTTQKTTLTTSESLQKTTKSHQINSRQTILIIACCVGFVLMVLLFLAFLGWDLWYCFHLCLAWLPWRGRQSGRDEDALPYDAFVVFDKTQSAVADWVYNELRGQLEECRGRWALRLCLEERDWLPGKTLFENLWASVYGSRKTLFVLAHTDRVSGLLRASFLLAQQRLLEDRKDVVVLVILSPDGRRSRYVRLRQRLCRQSVLLWPHQPSGQRSFWAQLGMALTRDNHHFYNRNFCQGPTAE
modifications: CER23, amino acids 1-22 are signal peptide
B2: CER21: Chimeric engulfment receptor: Tim4 binding, Tim4 transmembrane, TLR8 signaling; SEQ ID NO: 96 (protein)
chain: MSKGLLLLWLVTELWWLYLTPAASEDTIIGFLGQPVTLPCHYLSWSQSRNSMCWGKGSCPNSKCNAELLRTDGTRIISRKSTKYTLLGKVQFGEVSLTISNTNRGDSGVYCCRIEVPGWFNDVKKNVRLELRRATTTKKPTTTTRPTTTPYVTTTTPELLPTTVMTTSVLPTTTPPQTLATTAFSTAVTTCPSTTPGSFSQETTKGSAFTTESETLPASNHSQRSMMTISTDIAVLRPTGSNPGILPSTSQLTTQKTTLTTSESLQKTTKSHQINSRQTILIIACCVGFVLMVLLFLAFLHHLFYWDVWFIYNVCLAKVKGYRSLSTSQTFYDAYISYDTKDASVTDWVINELRYHLEESRDKNVLLCLEERDWDPGLAIIDNLMQSINQSKKTVFVLTKKYAKSWNFKTAFYLALQRLMDENMDVIIFILLEPVLQHSQYLRLRQRICKSSILQWPDNPKAEGLFWQTLRNVVLTENDSRYNNMYVDSIKQY
modifications: CER21, amino acids 1-22 are signal peptide
B3: CER5: Chimeric engulfment receptor: Tim4 binding, Tim4 transmembrane, TLR4 signaling; SEQ ID NO: 94 (protein)
chain: MSKGLLLLWLVTELWWLYLTPAASEDTIIGFLGQPVTLPCHYLSWSQSRNSMCWGKGSCPNSKCNAELLRTDGTRIISRKSTKYTLLGKVQFGEVSLTISNTNRGDSGVYCCRIEVPGWFNDVKKNVRLELRRATTTKKPTTTTRPTTTPYVTTTTPELLPTTVMTTSVLPTTTPPQTLATTAFSTAVTTCPSTTPGSFSQETTKGSAFTTESETLPASNHSQRSMMTISTDIAVLRPTGSNPGILPSTSQLTTQKTTLTTSESLQKTTKSHQINSRQTILIIACCVGFVLMVLLFLAFLKFYFHLMLLAGCIKYGRGENIYDAFVIYSSQDEDWVRNELVKNLEEGVPPFQLCLHYRDFIPGVAIAANIIHEGFHKSRKVIVVVSQHFIQSRWCIFEYEIAQTWQFLSSRAGIIFIVLQKVEKTLLRQQVELYRLLSRNTYLEWEDSVLGRHIFWRRLRKALLDGKSWNPEGTVGTGCNWQEATSI
modifications: CER5, amino acids 1-22 are signal peptide
B4: CER19: Chimeric engulfment receptor: Tim4 binding, Tim4 transmembrane, TLR5 signaling; SEQ ID NO: 95 (protein)
chain: MSKGLLLLWLVTELWWLYLTPAASEDTIIGFLGQPVTLPCHYLSWSQSRNSMCWGKGSCPNSKCNAELLRTDGTRIISRKSTKYTLLGKVQFGEVSLTISNTNRGDSGVYCCRIEVPGWFNDVKKNVRLELRRATTTKKPTTTTRPTTTPYVTTTTPELLPTTVMTTSVLPTTTPPQTLATTAFSTAVTTCPSTTPGSFSQETTKGSAFTTESETLPASNHSQRSMMTISTDIAVLRPTGSNPGILPSTSQLTTQKTTLTTSESLQKTTKSHQINSRQTILIIACCVGFVLMVLLFLAFLTKFRGFCFICYKTAQRLVFKDHPQGTEPDMYKYDAYLCFSSKDFTWVQNALLKHLDTQYSDQNRFNLCFEERDFVPGENRIANIQDAIWNSRKIVCLVSRHFLRDGWCLEAFSYAQGRCLSDLNSALIMVVVGSLSQYQLMKHQSIRGFVQKQQYLRWPEDFQDVGWFLHKLSQQILKKEKEKKKDNNIPLQTVATIS
modifications: CER19, amino acids 1-22 are signal peptide
B5: CER17: Chimeric engulfment receptor: Tim4 binding, Tim4 transmembrane, TLR3 signaling; SEQ ID NO: 112 (protein)
chain: MSKGLLLLWLVTELWWLYLTPAASEDTIIGFLGQPVTLPCHYLSWSQSRNSMCWGKGSCPNSKCNAELLRTDGTRIISRKSTKYTLLGKVQFGEVSLTISNTNRGDSGVYCCRIEVPGWFNDVKKNVRLELRRATTTKKPTTTTRPTTTPYVTTTTPELLPTTVMTTSVLPTTTPPQTLATTAFSTAVTTCPSTTPGSFSQETTKGSAFTTESETLPASNHSQRSMMTISTDIAVLRPTGSNPGILPSTSQLTTQKTTLTTSESLQKTTKSHQINSRQTILIIACCVGFVLMVLLFLAFLEGWRISFYWNVSVHRVLGFKEIDRQTEQFEYAAYIIHAYKDKDWVWEHFSSMEKEDQSLKFCLEERDFEAGVFELEAIVNSIKRSRKIIFVITHHLLKDPLCKRFKVHHAVQQAIEQNLDSIILVFLEEIPDYKLNHALCLRRGMFKSHCILNWPVQKERIGAFRHKLQVALGSKNSVH
modifications: CER17, amino acids 1-22 are signal peptide
B6: CER26: Chimeric engulfment receptor: Tim4 binding, Tim4 transmembrane, TLR1 signaling; SEQ ID NO: 118 (protein)
chain: MSKGLLLLWLVTELWWLYLTPAASEDTIIGFLGQPVTLPCHYLSWSQSRNSMCWGKGSCPNSKCNAELLRTDGTRIISRKSTKYTLLGKVQFGEVSLTISNTNRGDSGVYCCRIEVPGWFNDVKKNVRLELRRATTTKKPTTTTRPTTTPYVTTTTPELLPTTVMTTSVLPTTTPPQTLATTAFSTAVTTCPSTTPGSFSQETTKGSAFTTESETLPASNHSQRSMMTISTDIAVLRPTGSNPGILPSTSQLTTQKTTLTTSESLQKTTKSHQINSRQTILIIACCVGFVLMVLLFLAFLSYLDLPWYLRMVCQWTQTRRRARNIPLEELQRNLQFHAFISYSGHDSFWVKNELLPNLEKEGMQICLHERNFVPGKSIVENIITCIEKSYKSIFVLSPNFVQSEWCHYELYFAHHNLFHEGSNSLILILLEPIPQYSIPSSYHKLKSLMARRTYLEWPKEKSKRGLFWANLRAAINIKLTEQAKK
modifications: CER26, amino acids 1-22 are signal peptide

System: SCC152 cells
Assay: Elimination of GFP-expressing SCC152 target cells over time (quantification and time lapse imaging)
Type: cell-based
Conditions: 96-well co-culture, CD8+/E7 TCR + CD4+/CER + SCC152 1:1:1, compared to control
Description: Target SCC152 cells were co-cultured with CD8+ T cells transduced with HPV E7 TCR+CD4+ T cells transduced with a selected CER, or controls (CD8+ T cell transduced with HPV E7 TCR+CD4+ transduced control) at a 1:1:1 ratio. The number of target cells were quantified using imaging software. 0 hours, 24 hours, and 48 hours are shown from left to right.
(§1) FIG. 21 is time lapse imaging from 96-well co-culture experiments comprising CD8+ T cells transduced with HPV16 E7 TCR+CD4+ T cells transduced with CER5, CER17 or CER19 incubated with SCC152 target cells at a 1:1:1 ratio. SCC152 HPV+ target cells were quantified using automated cell counting software.
as §1, with “22” for “21”, “CER21, CER23” for “CER5, CER17”, “CER26” for “CER19”
as §1, with “23” for “21”, “CER103b, CER104” for “CER5, CER17”, “CER105” for “CER19”
as §1, with “24” for “21”, “CER106, CER116” for “CER5, CER17”, “CER27” for “CER19”
FIG. 57 is a bar graph showing quantification of loss of SCC152 HPV16+ target cells over time during co-culture assays. SCC152 cells were transduced with green fluorescent protein (GFP) and co-cultured with CD8+ T cells transduced with HPV16 E7 TCR and CD4+ T cells transduced with a selected CER (CER29, CER30, CER110, CER112, CER113, CER114, CER116, or CER117) or a CD4+ T cell control at a 1:1:1 ratio (CD8:CD4:target cell). The number of target cells was quantified at various time points during co-culture (0 hrs, 12 hrs, 24 hrs, and 36 hrs) using fluorescence microscopy and imaging software.
(§2) FIG. 58 are fluorescence micrograph images of the co-culture assay described in FIG. 57, showing clearance of the SCC152 cells (pink) as co-culture with CD8+ T cells transduced with HPV16 E7 TCR and CD4+ T cells transduced with a selected CER (columns from left to right: control, CER29, CER30, CER110, or CER112) progresses (rows from top to bottom: 0 hrs, 12 hrs, 24 hrs, and 36 hrs).
as §2, with “59” for “58”, “CER113, CER114, CER116,” for “CER29, CER30, CER110,”, “CER117)” for “CER112)”
(§3) Elimination of target SCC152 cells was also detected by quantifying green fluorescent protein expression by SCC152 cells over time (0 hr, 24 hr, 48 hr) during co-incubation with CD8+ T cells transduced with HPV16 E7 specific TCR+ CD4 T cells transduced with selected CER (see, FIG. 20).
as §3, with “hr, 12 hr,” for “hr,”, “hr, 36” for “hr, 48”, “TCR+ CD4+” for “TCR+ CD4”, “CER (CER29, CER30, CER110, CER112, CER113, CER114, CER116, or CER117)” for “CER”, “FIG. 57).” for “FIG. 20).”

| Molecule | number of SCC152 cells in time lapse imaging |
| --- | --- |
| B1 | decreasing in numbers over time |
| B2 | decreasing in numbers over time |
| B3 | decreasing in numbers over time |
| B4 | decreasing in numbers over time |
| B5 | decreasing in numbers over time |
| B6 | decreasing in numbers over time |
